From publication doi:10.1101/2022.09.15.508077 (bioRxiv, 2022)

Tests used:
UFC1 [1] = biological target: T1, UFC1 (UniProt Q9Y3C8 1-167); assay: NMR titration
T1 sequence: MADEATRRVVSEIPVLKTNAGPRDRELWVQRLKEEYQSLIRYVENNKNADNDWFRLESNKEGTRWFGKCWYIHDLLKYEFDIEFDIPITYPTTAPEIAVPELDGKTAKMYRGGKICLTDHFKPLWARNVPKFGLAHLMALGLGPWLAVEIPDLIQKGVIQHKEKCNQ

[2] = biological target: T2, UFL1 27-200 (the UFL1 piece of the fusion DDRGK1-UFL1ΔN) (UniProt O94874 27-200); assay: crystal structure
T2 sequence: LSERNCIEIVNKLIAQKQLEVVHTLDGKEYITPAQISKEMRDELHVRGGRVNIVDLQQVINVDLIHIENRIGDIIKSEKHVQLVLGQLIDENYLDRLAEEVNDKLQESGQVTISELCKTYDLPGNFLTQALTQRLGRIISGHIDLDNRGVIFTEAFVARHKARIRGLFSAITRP

UFC1 [3] = biological target: T1, UFC1; assay: ITC

B1: UBA5 C-terminus (UBA5 347-404) (domain or fragment)
chain: SEVSEEELKNFSGPVPDLPEGITVAYTIPKKQEDSVTELTVEDSGESLEDLMAKMKNM
Does B1 bind (UFC1 [1])?
Result: binds

B2: DDRGK1 207-305 (the DDRGK1 piece of the fusion DDRGK1-UFL1ΔN) (domain or fragment)
chain: MTEEQSQSFLTEFINYIKQSKVVLLEDLASQVGLRTQDTINRIQDLLAEGTITGVIDDRGKFIYITPEELAAVANFIRQRGRVSIAELAQASNSLIAWG
Does B2 bind [2]?
Result: binds

B3: DDRGK1_(207-314)-UFL1_(1-200) fusion protein (other)
chain: MTEEQSQSFLTEFINYIKQSKVVLLEDLASQVGLRTQDTINRIQDLLAEGTITGVIDDRGKFIYITPEELAAVANFIRQRGRVSIAELAQASNSLIAWGRESPAQAPAMADAWEEIRRLAADFQRAQFAEATQRLSERNCIEIVNKLIAQKQLEVVHTLDGKEYITPAQISKEMRDELHVRGGRVNIVDLQQVINVDLIHIENRIGDIIKSEKHVQLVLGQLIDENYLDRLAEEVNDKLQESGQVTISELCKTYDLPGNFLTQALTQRLGRIISGHIDLDNRGVIFTEAFVARHKARIRGLFSAITRP
With B3 as the binder, how does the Kd (UFC1 [3]) read?
Its Kd is 2400 nM.
